Test results from patent publication US20090124564A1 (YEDA RESEARCH AND DEVELOPMENT, published 2009).

Target: T1, mouse BCL-XL (mouse, UniProt Q64373 1-233)
T1 construct: whole, on cells; In mitochondria of FL5.12-BCL-XL cells
Experiment: BSOCOES cross-linking in TNFα-treated FL5.12-BCL-XL cells, excised 45 kDa gel section, alkaline reversal, Western blots
Procedure: FIG. 16a-FL5.12-BCL-XL cells were induced for 5 hours in the presence TNFα/CHX (lanes 3 and 4) or were remained un-induced (lanes 1 and 2), following which mitochondria were prepared from the cells and were treated with the BSOCOES cross-linker (+) (lanes 2 and 4) or remained untreated (−) (lanes 1 and 3). At the end of the incubation, the membranes were lysed and were size-fractionated by SDS-PAGE and immunoblotted using anti-BID Abs. FIGS. 16b-d—The experiment presented in FIG. 16a was repeated and the gel sections corresponding to the position of the 45 kDa band in lanes 3 and 4 (FIG. 16a; marked by boxes) were excised, incubated in alkaline conditions, and later resolved as described in FIGS. 12a-c. Lane 1—excised gel band from lane 3 of the gel presented in FIG. 16a; lane 2—excised gel band from lane 4 of the gel presented in FIG. 16a. […] The asterisk marks cross-reactive substances that might have been released from the gel sections.
To assess whether this band represented a complex between tBID (15 kDa) and BCL-XL (30 kDa), the experiment was repeated and the gel sections corresponding to the position of the 45 kDa band in lanes 3 and 4 (marked by boxes in FIG. 16a) were excised, incubated in alkaline conditions, and later resolved as described in Example 7, hereinabove and in FIGS. 12a-c.

T1 sequence (Q64373 whole entry): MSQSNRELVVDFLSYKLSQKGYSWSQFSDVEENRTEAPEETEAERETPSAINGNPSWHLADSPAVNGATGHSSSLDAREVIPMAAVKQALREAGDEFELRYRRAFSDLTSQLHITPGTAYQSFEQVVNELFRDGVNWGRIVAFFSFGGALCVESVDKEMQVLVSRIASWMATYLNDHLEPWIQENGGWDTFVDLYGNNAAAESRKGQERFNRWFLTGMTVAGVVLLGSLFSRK

B1: tBID, endogenous, in TNFα/CHX-treated FL5.12 cells (other)
chain: GSQASRSFNQGRIEPDSESQEEIIHNIARHLAQIGDEMDHNIQPTLVRQLAAQFMNGSLSEEDKRNCLAKALDEVKTAFPRDMENDKAMLIMTMLLAKKVASHAPSLLRDVFHTTVNFINQNLFSYVRNLVRNEMD
notes: FL5.12 is a murine cell line; also called endogenous tBID
B1: binds.
